In assay [1] the target is AF4 peptide of the fluorescence anisotropy experiments. Briefly: fluorescence polarisation.
The target of assay [2] is BCoR peptide of the fluorescence anisotropy experiments. The assay is described as follows: fluorescence polarisation. (Polarisation of emitted light reports the rotation of a fluorescent probe.)
The target in assay [3] is T1, AF4 peptide phosphorylated at T766.
T1 chain: LMVKI[pT]LDLLSRIP
Briefly: fluorescence polarisation.

Assay [4] deals with T2, AF9 ANC1 Homology Domain (AHD), residues 490-568 (UniProt P42568 490-568).
T2 sequence (looked up): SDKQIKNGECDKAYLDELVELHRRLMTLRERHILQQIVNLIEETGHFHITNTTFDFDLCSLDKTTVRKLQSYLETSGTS
Briefly: NMR titration.

Square brackets hold non-standard residues; d marks the D form. Ends that are not written are not given here. pT = C[C@@H](OP(=O)(O)O)[C@H](N)C(=O)O

B1: MBP-AF9 (mouse AF9 residues 475-568 fused to the Maltose Binding Protein) (domain or fragment, UniProt A2AM29 475-568, looked up)
chain: NNNQILEVKSPIKQSKSDKQIKNGECDKAYLDELVELHRRLMTLRERHILQQIVNLIEETGHFHITNTTFDFDLCSLDKTTVRKLQSYLETSGT
As to B1, the Kd (in general, the constant that tells how readily two partners part at equilibrium) in assay [1] stood at 0.17 nM; in assay [2], 32 nM. The “fold reduction of affinity against the unphosphorylated AF4 peptide” value in assay [3] is around 30 fold.

B2: AF4 peptide, residues 761-774 (AF9 interaction motif of AF4) (peptide, UniProt P51825 761-774, looked up)
peptide: LMVKITLDLLSRIP
For B2, the binding result in assay [4] is listed as “binds”.

The values are drawn from PMC3545106 (Structure (London, England : 1993), 2012).
